Experimental data: patent publication US20070149456A1, “Epithelial sodium channel inhibiting agents and uses therefor” (University of Pittsburgh, priority 2005, published 2007)

Molecular target: T1, mouse ENaC (Mus musculus, UniProt Q61180+Q9WU38+Q9WU39, DEL206-231)
T1 construct: expressed in transfected cells; host or cells: Xenopus laevis oocytes (cRNA injection)
T1 sequence (Q61180 with tags, fused parts or gaps DEL206-231): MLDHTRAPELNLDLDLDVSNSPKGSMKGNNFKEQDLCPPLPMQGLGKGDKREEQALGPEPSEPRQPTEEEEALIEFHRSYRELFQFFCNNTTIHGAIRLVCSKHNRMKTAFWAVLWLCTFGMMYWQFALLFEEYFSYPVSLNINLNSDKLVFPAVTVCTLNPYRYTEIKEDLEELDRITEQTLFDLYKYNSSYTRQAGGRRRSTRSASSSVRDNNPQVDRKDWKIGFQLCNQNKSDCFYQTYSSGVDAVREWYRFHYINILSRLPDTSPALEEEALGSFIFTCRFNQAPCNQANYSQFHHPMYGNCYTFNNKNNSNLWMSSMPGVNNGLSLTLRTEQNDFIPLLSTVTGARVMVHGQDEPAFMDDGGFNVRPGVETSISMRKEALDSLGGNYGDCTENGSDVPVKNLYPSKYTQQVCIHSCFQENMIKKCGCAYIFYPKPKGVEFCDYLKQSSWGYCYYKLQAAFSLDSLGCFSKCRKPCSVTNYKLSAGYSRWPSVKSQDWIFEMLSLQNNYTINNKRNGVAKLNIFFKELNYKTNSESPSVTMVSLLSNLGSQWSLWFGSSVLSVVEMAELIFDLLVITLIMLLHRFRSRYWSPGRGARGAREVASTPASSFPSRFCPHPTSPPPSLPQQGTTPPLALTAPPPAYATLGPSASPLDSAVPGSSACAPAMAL
T1 sequence (Q9WU38 1-638): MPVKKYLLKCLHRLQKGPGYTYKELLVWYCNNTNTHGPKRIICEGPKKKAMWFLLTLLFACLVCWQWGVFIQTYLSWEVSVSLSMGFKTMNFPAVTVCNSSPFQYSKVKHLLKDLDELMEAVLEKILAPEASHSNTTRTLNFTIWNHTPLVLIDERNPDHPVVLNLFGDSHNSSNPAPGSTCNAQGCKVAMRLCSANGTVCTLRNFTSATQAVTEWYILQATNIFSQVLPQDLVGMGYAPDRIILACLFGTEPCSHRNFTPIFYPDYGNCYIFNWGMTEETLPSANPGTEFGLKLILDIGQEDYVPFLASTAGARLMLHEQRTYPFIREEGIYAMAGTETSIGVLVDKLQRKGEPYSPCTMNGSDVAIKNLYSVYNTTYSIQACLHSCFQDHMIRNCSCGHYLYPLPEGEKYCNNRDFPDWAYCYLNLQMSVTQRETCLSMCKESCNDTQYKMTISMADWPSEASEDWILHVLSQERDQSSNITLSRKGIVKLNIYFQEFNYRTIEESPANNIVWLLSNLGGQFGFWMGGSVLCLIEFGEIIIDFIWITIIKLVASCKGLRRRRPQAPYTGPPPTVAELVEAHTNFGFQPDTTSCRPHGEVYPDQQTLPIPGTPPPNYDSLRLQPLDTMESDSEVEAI
T1 sequence (Q9WU39 1-655): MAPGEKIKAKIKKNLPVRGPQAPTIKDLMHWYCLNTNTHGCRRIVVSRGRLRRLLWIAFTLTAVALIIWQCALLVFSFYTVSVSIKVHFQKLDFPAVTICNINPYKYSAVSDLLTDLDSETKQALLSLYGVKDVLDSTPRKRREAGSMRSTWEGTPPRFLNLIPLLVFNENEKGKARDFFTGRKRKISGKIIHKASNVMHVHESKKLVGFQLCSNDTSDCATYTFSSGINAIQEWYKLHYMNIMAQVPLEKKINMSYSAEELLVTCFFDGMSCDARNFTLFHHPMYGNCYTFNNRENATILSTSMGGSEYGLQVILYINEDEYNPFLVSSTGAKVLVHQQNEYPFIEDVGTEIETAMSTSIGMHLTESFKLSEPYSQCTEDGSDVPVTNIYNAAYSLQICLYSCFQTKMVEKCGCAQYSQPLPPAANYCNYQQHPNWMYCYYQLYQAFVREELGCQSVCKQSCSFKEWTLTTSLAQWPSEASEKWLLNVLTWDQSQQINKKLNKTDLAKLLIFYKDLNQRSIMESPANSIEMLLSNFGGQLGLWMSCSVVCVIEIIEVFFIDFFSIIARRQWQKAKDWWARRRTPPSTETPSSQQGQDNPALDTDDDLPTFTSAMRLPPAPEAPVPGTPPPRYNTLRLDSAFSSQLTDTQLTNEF
Experiment: Two-electrode voltage clamp, amiloride-sensitive whole cell Na+ current in Xenopus oocytes expressing wild-type αβγ ENaC
Assay type: cell-based
Conditions: peptide 10 μM (FIG. 3B)
Source text: Oocyte Expression—cRNAs for α, β, γ mouse ENaC (wild-type and mutant) subunits and mouse prostasin were synthesized with T3 or T7 m-Message mMachineTM (Ambion, Austin, Tex.). Subunits carrying furin cleavage consensus site mutations and the corresponding wild-type subunits have amino-terminal HA and carboxyl-terminal V5 tags (Hughey, R. P., Bruns, J. B., Kinlough, C. L., Harkleroad, K. L., Tong, Q., Carattino, M. D., Johnson, J. P., Stockand, J. D., and Kleyman, T. R. (2004) J. Biol. Chem. 279, 18111-18114 18). Stage V-VI Xenopus laevis oocytes were pretreated with 1.5 mg/ml of type IV collagenase and injected with 0.5-2 ng of cRNA/subunit. Injected oocytes were maintained as previously reported (Carattino, M. D., Hill, W. G., and Kleyman, T. R. (2003), Arachidonic Acid Regulates Surface Expression of Epithelial Sodium Channels, J Biol. Chem. 278, 36202-36213 29).
Two-electrode Voltage Clamp—Two-electrode voltage clamp (TEV) was performed as previously described (Carattino, M. D., Hill, W. G., and Kleyman, T. R. (2003) J Biol. Chem. 278, 36202-36213 29). The extracellular solution (TEV solution) was (in mM): 110 NaCl, 2 KCl, 1.54 CaCl2, 10 HEPES, pH 7.4, or otherwise as indicated. […] Experiments with oocytes co-expressing ENaC and prostasin and the corresponding controls were performed in the presence of aprotinin (1 μM) to impede any potential degradation of α-26 by prostasin.
Data and Statistical Analyses—and mean time of inhibition are expressed as the mean with a 95% confidence interval (CI); otherwise, data were expressed as the mean ±S.E. (n), where “n” equals the number of independent experiments analyzed. IC50 was estimated from normalized currents plotted as a function of the peptide concentration fitted, as shown in Equation 1 y=t/(1+10^(logX−log/C50)) (Eq. 1) where y is the response variable, X is the concentration of peptide, and IC50 is the concentration of peptide that provokes a response half way between the baseline (t) and maximum response. […] Results

DLEGALPHPLQELETPPPPNPAESAE (Ac-DLEGALPHPLQELETPPPPNPAESAE-NH2) [R/E]
block of ENaC currents by related peptides: significant reduction in the block

DLRGALAHALQRLRTAAAANAARSAR (Ac-DLRGALAHALQRLRTAAAANAARSAR-NH2) [P/A]
block of ENaC currents by related peptides: significant reduction in the block
